Experimental data from patent US7407655.

B1: PF4 (ligand, human, UniProt P02776 32-101, looked up)
chain: EAEEDGDLQCLCVKTTSQVRPRHITSLEVIKAGPHCPTAQLIATLKNGRKICLDLQAPLYKKIIKKLLES
B2: I309 (ligand, human, UniProt P22362 24-96, looked up)
chain: KSMQVPFSRCCFSFAEQEIPLRAILCYRNTSSICSNEGLIFKLKRGKEACALDTVGWVQRHRKMLRHCPSKRK
B3: NAP-2 (ligand, human, UniProt P02775 59-128, looked up)
chain: AELRCMCIKTTSGIHPKNIQSLEVIGKGTHCNQVEVIATLKDGRKICLDPDAPRIKKIVQKKLAGDESAD

What follows are molecules tested against human CXC Chemokine Receptor 3 (CXCR3) (human) (UniProt P49682) (assay: cell-based or functional assay).
Chain of human CXC Chemokine Receptor 3 (CXCR3) (human) (P49682 whole entry): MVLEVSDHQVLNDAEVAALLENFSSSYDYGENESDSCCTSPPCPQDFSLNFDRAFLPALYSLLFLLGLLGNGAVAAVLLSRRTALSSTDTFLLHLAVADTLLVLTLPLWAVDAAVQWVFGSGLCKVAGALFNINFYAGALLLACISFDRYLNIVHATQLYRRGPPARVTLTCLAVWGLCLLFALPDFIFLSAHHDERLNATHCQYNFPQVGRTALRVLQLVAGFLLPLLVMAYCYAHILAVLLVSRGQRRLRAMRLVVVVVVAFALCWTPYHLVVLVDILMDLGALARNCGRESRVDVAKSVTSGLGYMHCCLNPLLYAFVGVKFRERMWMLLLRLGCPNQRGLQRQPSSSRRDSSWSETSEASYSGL

Row | [Ca^2+]i changes in IP-10/MigR transfectants [nM] | Molecule
1 | > 100 | ENA78 (from UniProt P42830 37-114) (ligand)
2 | > 100 | GCP-2 (from UniProt P80162 38-114) (ligand)
3 | > 100 | GROα (from UniProt P09341 35-107) (ligand)
4 | > 100 | IL-8 (from UniProt P10145 28-99) (ligand)
5 | > 100 | MCP-1 (from UniProt P13500 24-99) (ligand)
6 | > 100 | MCP-2 (from UniProt P80075 24-99) (ligand)
7 | > 100 | MCP-3 (from UniProt P80098 24-99) (ligand)
8 | > 100 | MCP-4 (from UniProt Q99616 24-98) (ligand)
9 | > 100 | MIP-1α (from UniProt P10147 24-92) (ligand)
10 | > 100 | MIP-1β (from UniProt P13236 24-92) (ligand)
11 | > 100 | RANTES (from UniProt P13501 24-91) (ligand)
12 | > 100 | eotaxin (from UniProt P51671 24-97) (ligand)
13 | > 100 | lymphotactin (from UniProt P47992 22-114) (ligand)
14 | > 100 | B1
15 | > 100 | B2
16 | > 100 | B3
